The record followed here is patent US20170130210A1.

The target of the assay is Pfk-I with the C-terminal degradation tag DAS+4, expressed from the pfkA locus of E. coli strain IB1863 (E. coli) (UniProt P0A796). As to the kind of experiment: cell-based or functional assay.

Values joined by “and” are separate entries in the source; they are usually repeats but may differ in a detail not shown here. Equal values may be shown once.

Pfk-I with the C-terminal degradation tag DAS+4, expressed from the pfkA locus of E. coli strain IB1863 (E. coli), sequence (P0A796 1-320, tags or fused parts left off): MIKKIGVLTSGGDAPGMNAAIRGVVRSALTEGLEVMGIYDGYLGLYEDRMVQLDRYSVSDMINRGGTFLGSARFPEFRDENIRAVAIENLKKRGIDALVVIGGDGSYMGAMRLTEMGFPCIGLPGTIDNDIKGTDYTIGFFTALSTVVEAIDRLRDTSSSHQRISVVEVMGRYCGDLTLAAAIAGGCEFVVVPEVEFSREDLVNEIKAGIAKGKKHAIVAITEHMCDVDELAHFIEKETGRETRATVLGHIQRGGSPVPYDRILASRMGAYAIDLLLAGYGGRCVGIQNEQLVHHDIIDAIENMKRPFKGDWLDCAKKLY

For “SspB, native E. coli adaptor protein (from UniProt P0AFZ3 1-165)”, the Pfk activity in crude lysate of IB1863 after aTc induction of SspB, relative to wild-type (% of wild-type) was 35 and 18.
